How the values were obtained:
Fc tagged human PDL1 = target: T1, Fc tagged human PDL1 (human, UniProt Q9NZQ7 19-239); experiment: SPR
T1 construct: Bought (Sino Biological, cat. 10084-H02H); captured on the SPR chip; also called PDL1-Fc chimeric protein
Description: (§1) Affinity to PDL1 of the different species was determined by SPR measurements using a Biacore T200 device (GE Healthcare). An antibody specific for the Fc region of human IgGs was immobilized on a sensor chip (CM5 sensor chip, GE Healthcare) by amine-coupling. For all formats, with the exception of the Fc containing Morrison formats, PDL1-Fc chimeric protein from different species were captured by the immobilized antibody.
(§2) Three-fold serial dilutions of the molecules specific for PDL1 (0.12-90 nM) were injected into the flow cells for three minutes and dissociation was monitored for 10 minutes. After each injection cycle, surfaces were regenerated with one injection of a 3 M MgCl₂ solution. The apparent dissociation (kd) and association (kₐ) rate constants and the apparent dissociation equilibrium constant (KD) were calculated using one-to-one Langmuir binding model. Affinity to CD137 of the different species was determined using the identical setup as for PDL1 with the exception that CD137-Fc chimeric protein from different species were captured by the immobilized antibody.

Fc tagged human CD137 = target: T2, Fc tagged human CD137 (human, UniProt Q07011 24-186); experiment: SPR
T2 construct: also called CD137-Fc chimeric protein
Description: as §1, §2

human PDL1 on cells = human PDL1 on cells (human, UniProt Q9NZQ7 19-290); experiment: cell-based or functional assay
[1] = target: T3, CD137 on Jurkat NFkB reporter cells (human, UniProt Q07011 24-255); experiment: cell-based or functional assay
[2] = target: T3, CD137 on Jurkat NFkB reporter cells; experiment: cell-based or functional assay; remark: listed apart in the source
biotinylated human PDL1 [3] = target: T4, biotinylated human PDL1 (human, UniProt Q9NZQ7 19-238, limits assumed, biotinylated); experiment: competition ELISA B7.1/PDL1
T4 construct: also called biotinylated PDL1
Description: Plates were blocked for 1 hour at room temperature by adding 300 μl of PBS with 1% BSA and 0.2% tween (dilution buffer) to each well. […] The mixtures were pre-incubated for 1 hour at room temperature under gentle agitation on a rotating mixer (21 rpm) and added to the microplates after 3 wash cycles with 450 μl wash buffer per well. Plates were incubated for 1.5 hours at room temperature under gentle agitation, then 10 ng/ml streptavidin-polyHRP40 was added to each microplate well after three washes with 450 μl of wash buffer per well. After 1 h incubation at RT, plates were washed three times with 450 μl wash buffer and TMB substrate solution was added. The enzymatic reaction was stopped after 6 minutes by addition of 1 M HCl and absorbance was measured at 450 nm using 690 nm as a reference wavelength. For calculation of IC₅₀ values, a four-parameter logistic (4PL) curve fit was performed in Graph Pad Prism using reference subtracted values.

biotinylated human PDL1 [4] = target: T4, biotinylated human PDL1; experiment: competition ELISA PD-1/PDL1
Description: Plates were blocked for 1 hour at room temperature by adding 300 μl of PBS with i%BSA and 0.2% tween (dilution buffer) to each well. Inhibitors were serially diluted in 3-fold steps to final concentrations ranging from 300 to 0.005 ng/ml in dilution buffer containing 1 ng/ml biotinylated human PDL1. The mixtures were pre-incubated for 1 hour at room temperature under gentle agitation on a rotating mixer (21 rpm) and added to the microplates after 3 wash cycles with 450 μl wash buffer per well. Plates were incubated for 1.5 hours at room temperature under gentle agitation, then 10 ng/ml streptavidin-polyHRP40 was added to each microplate well after three washes with 450 μl of wash buffer per well. After 1 h incubation at RT, plates were washed three times with 450 μl wash buffer and TMB substrate solution was added. The enzymatic reaction was stopped after 6 minutes by addition of 1 M HCl and absorbance was measured at 450 nm using 690 nm as a reference wavelength. For calculation of IC₅₀ values, a four-parameter logistic (4PL) curve fit was performed in Graph Pad Prism using reference subtracted values.

Row | Kd (Fc tagged human CD137) [nM] | koff (Fc tagged human CD137) [s⁻¹] | kon (Fc tagged human CD137) [M⁻¹ s⁻¹] | IC50 (ng/ml), NF-AT potency assay, +HSA (human PDL1 on cells) [ng/mL] | rel. IC50 (avelumab/test), +HSA (human PDL1 on cells) [fold] | IC50 (ng/ml) (EC50 in Table 16C), NFkB reporter, HCC827 + IFNg, 24 h, +HSA [1] [ng/mL] | rel. IC50 (PRO1186/test), 24 h [1] [fold] | Area under the curve (calculated using PRO885 normalized data), first line (6 h by the order of the upper part) [2] | Area under the curve (calculated using PRO885 normalized data), second line (24 h by the order of the upper part) [2] | EC50 [ng/ml], NF-kB reporter, HCC827 + IFNg, +HSA, 6 h [2] [ng/mL] | IC10/EC90 ratio, first line (6 h by the order of the upper part) [2] | IC10/EC90 ratio, second line (24 h by the order of the upper part) [2] | Maximum NF-kB activation (rel. to PRO1186) [%], first line (6 h by the order of the upper part) [2] [%] | Maximum NF-kB activation (rel. to PRO1186) [%], second line (24 h by the order of the upper part) [2] [%] | rel. Area under the curve (AUCsample/AUCPRO1186), first line (6 h by the order of the upper part) [2] [fold] | rel. Area under the curve (AUCsample/AUCPRO1186), second line (24 h by the order of the upper part) [2] [fold] | rel. EC50 (EC50, PRO1186/EC50, sample), NF-kB reporter, 6 h [2] [fold] | rel. EC50 (EC50, PRO1186/EC50, sample), NF-kB reporter, 24 h [2] [fold] | rel. IC10/EC90 (ratio of sample/ratio of PRO1186), first line (6 h by the order of the upper part) [2] [fold] | rel. IC10/EC90 (ratio of sample/ratio of PRO1186), second line (24 h by the order of the upper part) [2] [fold] | Binder | other results
1 | 1.1 | 0.00037 | 350000 | 53.5 | 0.66 | 3.9 | 1.83 | 93.5 | 135 | 5.97 | 34.2 | 35.7 | 36.4 | 76.1 | 0.39 | 0.59 | 2.02 | 1.83 | 2.66 | 1.63 | PRO1476 (other, trispecific scDb-scFv; also called 33-03-G02 sc03 scDb-i/38-02-A04 sc13 scDb-o/19-01-H04 sc03 scFv) DIQMTQSPSSLSASVGDRVTITCQASQSINNVLAWYQQKPGKAPKLLIYRASTLASGVPSRFSGSGSGTDFTLTISSLQPEDFATYYCQSSYGNYGDFGCGTKVTVLGGGGGSQSQLQESGPGLVKPSETLSLTCKASGFSFSSGYDMCWVRQPPGKGLEWIACVVAGSVDITYYASWAKGRVTISKDSSKNQVSLKLSSVTAADTAVYFCARKDAYSDAFNLWGQGTLVTVSSGGGGSGGGGSGGGGSGGGGSFQLTQSPSSLSASVGDRVTITCQASQSINDYLAWYQQKPGKSPKLLIYKASTLASGVPSRFSGSGSGTDFTLTISSLQPEDFATYYCQQGYIITDIDNVFGTGTKVTVLGGGGGSEVQLVESGGGLVQPGGSLRLSCAASGFSFSNSYWICWVRQAPGKCLEWIGCTFVGSSDSTYYANWAKGRFTISRDNSKNTVYLQMNSLRAEDTAVYYCARHPSDAVYGYANNLWGQGTLVTVSSGGGGSGGGGSIQMTQSPSSLSASVGDRVTITCQSSESVYSNNQLSWYQQKPGQPPKLLIYDASDLASGVPSRFSGSGSGTDFTLTISSLQPEDFATYYCAGGFSSSSDTAFGGGTKLTVLGGGGGSGGGGSGGGGSGGGGSEVQLVESGGGLVQPGGSLRLSCAASGFSLSSNAMGWVRQAPGKGLEYIGIISVGGFTYYASWAKGRFTISRDNSKNTVYLQMNSLRAEDTATYFCARDRHGGDSSGAFYLWGQGTLVTVSS | Kd (Fc tagged human PDL1): 0.009 nM; koff (Fc tagged human PDL1): 3.1e-05 s⁻¹; IC50 (biotinylated human PDL1 [3]): 9.49 ng/mL; rel. IC50 (IC50 avelumab/IC50 test) (biotinylated human PDL1 [3]): 1.1 fold; IC50 (biotinylated human PDL1 [4]): 2.84 ng/mL; rel. IC50 (IC50 avelumab/IC50 test) (biotinylated human PDL1 [4]): 0.8 fold
2 | 0.75 | 0.00045 | 600000 | 18.5 | 1.98 | 21.9 | 0.75 | 111 | 150 | 19.4 | 26.8 | 3.57 | 63.4 | 83.8 | 0.59 | 0.81 | 0.67 | 0.75 | 0.36 | 0.16 | PRO1432 (other, trispecific scDb-scFv; also called 33-03-G02 sc18 scDb-i/38-02-A04 sc13 scDb-o/19-01-H04 sc03 scFv) DIQMTQSPSSLSASVGDRVTITCQASQSINNVLAWYQQKPGKAPKLLIYRASTLASGVPSRFSGSGSGTDFTLTISSLQPEDFATYYCQSSYGNYGDFGCGTKVTVLGGGGGSQVQLQESGPGLVKPSETLSLTCKASGFSFSSGYDMCWVRQPPGKGLEWIACVVAGSVDITYYASWAKGRVTISKDSSKNQVSLKLSSVTAADTAVYYCARKDAYSDAFNLWGQGTLVTVSSGGGGSGGGGSGGGGSGGGGSIQMTQSPSSLSASVGDRVTITCQASQSINDYLAWYQQKPGKAPKLLIYKASTLASGVPSRFSGSGSGTDFTLTISSLQPEDFATYYCQQGYIITDIDNVFGTGTKVTVLGGGGGSEVQLVESGGGLVQPGGSLRLSCAASGFSFSNSYWICWVRQAPGKCLEWIGCTFVGSSDSTYYANWAKGRFTISRDNSKNTVYLQMNSLRAEDTAVYYCARHPSDAVYGYANNLWGQGTLVTVSSGGGGSGGGGSIQMTQSPSSLSASVGDRVTITCQSSESVYSNNQLSWYQQKPGQPPKLLIYDASDLASGVPSRFSGSGSGTDFTLTISSLQPEDFATYYCAGGFSSSSDTAFGGGTKLTVLGGGGGSGGGGSGGGGSGGGGSEVQLVESGGGLVQPGGSLRLSCAASGFSLSSNAMGWVRQAPGKGLEYIGIISVGGFTYYASWAKGRFTISRDNSKNTVYLQMNSLRAEDTATYFCARDRHGGDSSGAFYLWGQGTLVTVSS | koff (Fc tagged human PDL1): 4.4e-05 s⁻¹; kon (Fc tagged human PDL1): 4.2e+06 M⁻¹ s⁻¹; IC50 (biotinylated human PDL1 [3]): 2.83 ng/mL; rel. IC50 (IC50 avelumab/IC50 test) (biotinylated human PDL1 [3]): 0.99 fold; IC50 (biotinylated human PDL1 [4]): 3.26 ng/mL; rel. IC50 (IC50 avelumab/IC50 test) (biotinylated human PDL1 [4]): 0.43 fold
3 | 0.33 | 0.0002 | 630000 | 40.6 | 0.92 | 5.51 | 0.58 | 292 | 254 | 7.22 | 23.7 | 41 | 147 | 117 | 1.37 | 1 | 1.04 | 0.58 | 1.71 | 5.72 | PRO1481 (other, trispecific scDb-scFv; also called 38-27-A11 sc03 scDb-i/37-20-B03 sc09.1 scDb-o/19-01-H04 sc03 scFv) DIQMTQSPASLSASVGDRVTITCQASQSIGTYLAWYQQKPGKPPKLLIYRAFILASGVPSRFSGSGSGTDFTLTISSLQPEDFATYYCQSNFYSDSTTIGPNAFGTGTKVTVLGGGGGSESQLVESGGGLVQPGGSLRLSCAASGFSFSANYYPCWVRQAPGKGLEWIGCIYGGSSDITYDANWTKGRFTISRDNSKNTVYLQMNSLRAEDTAVYFCARSAWYSGWGGDLWGPGTLVTVSSGGGGSGGGGSGGGGSGGGGSFQLTQSPSSLSASVGDRVTITCQASQSISNRLAWYQQKPGKPPKLLIYSASTLASGVPSRFSGSGSGTDFTLTISSLQPEDFATYYCQSTYYGNDGNAFGTGTKVTVLGGGGGSEVQLVESGGGLVQPGGSLRLSCAASGFSFNSDYWIYWVRQAPGKGLEWIASIYGGSSGNTQYASWAQGRFTISRDNSKNTVYLQMNSLRAEDTAVYFCARGYVDYGGATDLWGQGTLVTVSSGGGGSGGGGSIQMTQSPSSLSASVGDRVTITCQSSESVYSNNQLSWYQQKPGQPPKLLIYDASDLASGVPSRFSGSGSGTDFTLTISSLQPEDFATYYCAGGFSSSSDTAFGGGTKLTVLGGGGGSGGGGSGGGGSGGGGSEVQLVESGGGLVQPGGSLRLSCAASGFSLSSNAMGWVRQAPGKGLEYIGIISVGGFTYYASWAKGRFTISRDNSKNTVYLQMNSLRAEDTATYFCARDRHGGDSSGAFYLWGQGTLVTVSS | Kd (Fc tagged human PDL1): 0.0092 nM; kon (Fc tagged human PDL1): 4.7e+06 M⁻¹ s⁻¹; IC50 (biotinylated human PDL1 [3]): 10.1 ng/mL; rel. IC50 (IC50 avelumab/IC50 test) (biotinylated human PDL1 [3]): 1.45 fold; IC50 (biotinylated human PDL1 [4]): 2.69 ng/mL; rel. IC50 (IC50 avelumab/IC50 test) (biotinylated human PDL1 [4]): 0.84 fold

Reference: US20230192897A1 (NUMAB THERAPEUTICS, published 2023)
